According to publication PMC13379236 (Cell reports, 2026):

Tests used:
ZYG11B-EloBC = ZYG11B-EloBC (Homo sapiens, UniProt Q9C0D3); experiment: MBP pull-down with substrate receptor module ZYG11B-EloBC; assay type: binding; conditions: R466A mutation of ZYG11B, recombinant purified proteins, Figure S9A
Procedure: Peptides corresponding to […] and […] were appended to the N terminus of maltose-binding protein (MBP) and cloned into pET-28a containing an N-terminal His6 tag followed by a TEV protease cleavage site. Fusion proteins were purified by Ni-NTA chromatography, digested with TEV protease, and passed over Ni-NTA resin again to remove TEV and the cleaved His6 tag. Final purification was performed by size-exclusion chromatography. The resulting proteins contained MBP fused to N-terminal Gly/N-degron overhangs. For pulldown experiments, approximately 100 μg MBP fusion protein was immobilized on 50 μL amylose resin and incubated with prey protein at a 1:1 molar ratio for 1 h at 4°C. Resin was washed three times, and bound proteins were eluted in sizing buffer supplemented with 20 mM maltose. Samples were analyzed by SDS-PAGE and Coomassie staining. Pulldown efficiency was quantified as the ratio of MBP–NLRP1 degron signal to ZYG11B signal in the same gel lane. […]
incubation of full-length Cyclin B1 without Gly/N-degron with ZYG11B–EloBC (top). SDS–PAGE analysis of the indicated fractions from the Superose 6 column (dashed lines) confirms complex formation (bottom) C, fluorescence anisotropy binding of ZYG11B-EloBC to indicated fluorescein-labeled peptides (left) and fitted equilibrium dissociation constants (right). […]

NLRP1 inflammasome = assay type: cell-based, human

ZYG11B-EloBC, sequence (Q9C0D3 whole entry, the tested form may be a part): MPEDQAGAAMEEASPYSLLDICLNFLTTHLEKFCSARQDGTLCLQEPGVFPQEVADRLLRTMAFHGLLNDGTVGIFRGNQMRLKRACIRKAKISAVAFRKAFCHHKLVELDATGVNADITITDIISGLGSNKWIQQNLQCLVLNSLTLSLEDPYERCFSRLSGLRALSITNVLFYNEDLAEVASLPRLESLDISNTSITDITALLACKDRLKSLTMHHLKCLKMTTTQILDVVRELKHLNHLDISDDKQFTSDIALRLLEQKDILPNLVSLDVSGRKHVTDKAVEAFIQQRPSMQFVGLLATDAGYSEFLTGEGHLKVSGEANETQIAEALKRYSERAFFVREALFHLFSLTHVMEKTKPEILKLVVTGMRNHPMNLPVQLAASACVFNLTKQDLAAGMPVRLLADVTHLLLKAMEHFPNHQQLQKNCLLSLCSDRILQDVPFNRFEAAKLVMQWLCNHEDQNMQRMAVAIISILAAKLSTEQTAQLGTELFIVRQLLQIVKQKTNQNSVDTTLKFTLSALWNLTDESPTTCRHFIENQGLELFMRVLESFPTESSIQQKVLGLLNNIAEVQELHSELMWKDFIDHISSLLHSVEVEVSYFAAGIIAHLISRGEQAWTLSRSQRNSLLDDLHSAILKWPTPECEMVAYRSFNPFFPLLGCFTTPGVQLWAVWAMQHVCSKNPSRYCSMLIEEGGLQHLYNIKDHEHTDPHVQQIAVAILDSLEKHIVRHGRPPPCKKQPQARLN
ZYG11B-EloBC, sequence (Q15370 whole entry partner, the tested form may be a part): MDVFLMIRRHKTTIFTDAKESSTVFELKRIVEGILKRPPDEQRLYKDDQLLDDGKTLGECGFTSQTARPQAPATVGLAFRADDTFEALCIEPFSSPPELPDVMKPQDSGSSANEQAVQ
ZYG11B-EloBC, sequence (Q15369 17-112 partner limits assumed): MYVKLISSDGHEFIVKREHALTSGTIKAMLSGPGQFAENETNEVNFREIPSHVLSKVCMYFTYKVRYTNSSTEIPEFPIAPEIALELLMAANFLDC

Molecule	binding to ZYG11B-EloBC R466A mutant versus WT (ZYG11B-EloBC)	inflammasome activation of NLRP1 mutant upon HRV 3Cpro (NLRP1 inflammasome)
NLRP1 Gly/N-degron: C-terminal fragment generated by 3C cleavage, which exposes the Gly/N-degron, begins at glycine-131 (protein) GSERRVLRQLPDTSGRRWREISASLLYQALPSSPDHESPSQESPNAPTSTAVLGSWGSPPQPSLAPREQEAPGTQWPLDETSGIYYTEIREREREKSEKGRPPWAAVVGTPPQAHTSLQPHHHPWEPSVRESLCSTWPWKNEDFNQKFTQLLLLQRPHPRSQDPLVKRSWPDYVEENRGHLIEIRDLFGPGLDTQEPRIVILQGAAGIGKSTLARQVKEAWGRGQLYGDRFQHVFYFSCRELAQSKVVSLAELIGKDGTATPAPIRQILSRPERLLFILDGVDEPGWVLQEPSSELCLHWSQPQPADALLGSLLGKTILPEASFLITARTTALQNLIPSLEQARWVEVLGFSESSRKEYFYRYFTDERQAIRAFRLVKSNKELWALCLVPWVSWLACTCLMQQMKRKEKLTLTSKTTTTLCLHYLAQALQAQPLGPQLRDLCSLAAEGIWQKKTLFSPDDLRKHGLDGAIISTFLKMGILQEHPIPLSYSFIHLCFQEFFAAMSYVLEDEKGRGKHSNCIIDLEKTLEAYGIHGLFGASTTRFLLGLLSDEGEREMENIFHCRLSQGRNLMQWVPSLQLLLQPHSLESLHCLYETRNKTFLTQVMAHFEEMGMCVETDMELLVCTFCIKFSRHVKKLQLIEGRQHRSTWSPTMVVLFRWVPVTDAYWQILFSVLKVTRNLKELDLSGNSLSHSAVKSLCKTLRRPRCLLETLRLAGCGLTAEDCKDLAFGLRANQTLTELDLSFNVLTDAGAKHLCQRLRQPSCKLQRLQLVSCGLTSDCCQDLASVLSASPSLKELDLQQNNLDDVGVRLLCEGLRHPACKLIRLGLDQTTLSDEMRQELRALEQEKPQLLIFSRRKPSVMTPTEGLDTGEMSNSTSSLKRQRLGSERAASHVAQANLKLLDVSKIFPIAEIAEESSPEVVPVELLCVPSPASQGDLHTKPLGTDDDFWGPTGPVATEVVDKEKNLYRVHFPVAGSYRWPNTGLCFVMREAVTVEIEFCVWDQFLGEINPQHSWMVAGPLLDIKAEPGAVEAVHLPHFVALQGGHVDTSLFQMAHFKEEGMLLEKPARVELHHIVLENPSFSPLGVLLKMIHNALRFIPVTSVVLLYHRVHPEEVTFHLYLIPSDCSIRKAIDDLEMKFQFVRIHKPPPLTPLYMGCRYTVSGSGSGMLEILPKELELCYRSPGEDQLFSEFYVGHLGSGIRLQVKDKKDETLVWEALVKPGDLMPATTLIPPARIAVPSPLDAPQLLHFVDQYREQLIARVTSVEVVLDKLHGQVLSQEQYERVLAENTRPSQMRKLFSLSQSWDRKCKDGLYQALKETHPHLIMELWEKGSKKGLLPLSS	relatively strong reduction	–
E133K: E133K mutation of NLRP1 (residue E3 of the Gly/N-degron) (protein) GSKRRVLRQLPDTSGRRWREISASLLYQALPSSPDHESPSQESPNAPTSTAVLGSWGSPPQPSLAPREQEAPGTQWPLDETSGIYYTEIREREREKSEKGRPPWAAVVGTPPQAHTSLQPHHHPWEPSVRESLCSTWPWKNEDFNQKFTQLLLLQRPHPRSQDPLVKRSWPDYVEENRGHLIEIRDLFGPGLDTQEPRIVILQGAAGIGKSTLARQVKEAWGRGQLYGDRFQHVFYFSCRELAQSKVVSLAELIGKDGTATPAPIRQILSRPERLLFILDGVDEPGWVLQEPSSELCLHWSQPQPADALLGSLLGKTILPEASFLITARTTALQNLIPSLEQARWVEVLGFSESSRKEYFYRYFTDERQAIRAFRLVKSNKELWALCLVPWVSWLACTCLMQQMKRKEKLTLTSKTTTTLCLHYLAQALQAQPLGPQLRDLCSLAAEGIWQKKTLFSPDDLRKHGLDGAIISTFLKMGILQEHPIPLSYSFIHLCFQEFFAAMSYVLEDEKGRGKHSNCIIDLEKTLEAYGIHGLFGASTTRFLLGLLSDEGEREMENIFHCRLSQGRNLMQWVPSLQLLLQPHSLESLHCLYETRNKTFLTQVMAHFEEMGMCVETDMELLVCTFCIKFSRHVKKLQLIEGRQHRSTWSPTMVVLFRWVPVTDAYWQILFSVLKVTRNLKELDLSGNSLSHSAVKSLCKTLRRPRCLLETLRLAGCGLTAEDCKDLAFGLRANQTLTELDLSFNVLTDAGAKHLCQRLRQPSCKLQRLQLVSCGLTSDCCQDLASVLSASPSLKELDLQQNNLDDVGVRLLCEGLRHPACKLIRLGLDQTTLSDEMRQELRALEQEKPQLLIFSRRKPSVMTPTEGLDTGEMSNSTSSLKRQRLGSERAASHVAQANLKLLDVSKIFPIAEIAEESSPEVVPVELLCVPSPASQGDLHTKPLGTDDDFWGPTGPVATEVVDKEKNLYRVHFPVAGSYRWPNTGLCFVMREAVTVEIEFCVWDQFLGEINPQHSWMVAGPLLDIKAEPGAVEAVHLPHFVALQGGHVDTSLFQMAHFKEEGMLLEKPARVELHHIVLENPSFSPLGVLLKMIHNALRFIPVTSVVLLYHRVHPEEVTFHLYLIPSDCSIRKAIDDLEMKFQFVRIHKPPPLTPLYMGCRYTVSGSGSGMLEILPKELELCYRSPGEDQLFSEFYVGHLGSGIRLQVKDKKDETLVWEALVKPGDLMPATTLIPPARIAVPSPLDAPQLLHFVDQYREQLIARVTSVEVVLDKLHGQVLSQEQYERVLAENTRPSQMRKLFSLSQSWDRKCKDGLYQALKETHPHLIMELWEKGSKKGLLPLSS	–	reduced inflammasome activation
